Measurements taken from patent publication US20110052582A1 (Hoffmann-La Roche, published 2011).
Changes are numbered by the printed parent chain.

B1: hHC4-K2 / hLC4-a (antibody, V domains shown)
VH: EVQLVESGGGLVKPGGSLRLSCAASGFTFNSYGMSWVRQAPGKGLEWVSSISSGGSYTYYADSVKGRFTISRDNAKNSLYLQMNSLRAEDTAVYYCARHPDYDGVWFAYWGQGTLVTVSS
VL: EIVLTQSPATLSLSPGERATLSCSVSSSVFYVHWYQQKPGQAPRLLIYDTSKLASGIPARFSGSGSGTDFTLTISSLEPEDFAVYYCQQWNSNPPTFGGGTKVEIK
B2: hHC4-b / hLC4-b (antibody, V domains shown)
VH: B1 VH with G33S, S35N, T58I
VL: B1 VL with F70Y
B3: hHC4-a / hLC4-M (antibody, V domains shown)
VH: B1 VH with S50T, A61P
VL: B1 VL with L21M, S24G, V25A, V32L, Q41L, L46W, A59D, S76R
B4: hHC4-a / hLC4-L2 (antibody, V domains shown)
VH: B1 VH with S50T, A61P
VL: B1 VL with L21M, V32L, L46W
B5: hHC4-a / hLC4-b (antibody, V domains shown)
VH: B1 VH with S50T, A61P
VL: B1 VL with F70Y
B6: hHC4-a / hLC4-d (antibody, V domains shown)
VH: B1 VH with S50T, A61P
VL: B1 VL with L4M, L13V, D69E, F70Y, E78Q, P79S
B7: hHC4-c / hLC4-L (antibody, V domains shown)
VH: B1 VH with K13Q, S49A, S50T, A61P
VL: B1 VL with L21M, S24R, V25A, V32L, L46W
B8: hHC4-K / hLC4-I (antibody, V domains shown)
VH: B1 VH with T58I
VL: B1 VL with L4M, S24R, V25A, V32L, H33S, L46W, E78Q
B9: hHC4-b / hLC4-M (antibody, V domains shown)
VH: B1 VH with G33S, S35N, T58I
VL: B1 VL with L21M, S24G, V25A, V32L, Q41L, L46W, A59D, S76R
B10: hHC4-c / hLC4-L2 (antibody, V domains shown)
VH: B1 VH with K13Q, S49A, S50T, A61P
VL: B1 VL with L21M, V32L, L46W
B11: hHC4-K / hLC4-L (antibody, V domains shown)
VH: B1 VH with T58I
VL: B1 VL with L21M, S24R, V25A, V32L, L46W
B12: hHC4-K / hLC4-a (antibody, V domains shown)
VH: B1 VH with T58I
VL: B1 VL
B13: hHC4-b / hLC4-L (antibody, V domains shown)
VH: B1 VH with G33S, S35N, T58I
VL: B1 VL with L21M, S24R, V25A, V32L, L46W
B14: hHC4-K / hLC4-b (antibody, V domains shown)
VH: B1 VH with T58I
VL: B1 VL with F70Y
B15: hHC4-b / hLC4-a (antibody, V domains shown)
VH: B1 VH with G33S, S35N, T58I
VL: B1 VL
B16: hHC4-K / hLC4-J (antibody, V domains shown)
VH: B1 VH with T58I
VL: B1 VL with L4M, L21M, S24R, V25A, V32L, L46W, E78Q
B17: hHC4-c / hLC4-b (antibody, V domains shown)
VH: B1 VH with K13Q, S49A, S50T, A61P
VL: B1 VL with F70Y
B18: hHC4-c / hLC4-c (antibody, V domains shown)
VH: B1 VH with K13Q, S49A, S50T, A61P
VL: B1 VL with L4M, L13V, D69E, E78Q, P79S
B19: hHC4-a / hLC4-L (antibody, V domains shown)
VH: B1 VH with S50T, A61P
VL: B1 VL with L21M, S24R, V25A, V32L, L46W
B20: hHC4-K2 / hLC4-b (antibody, V domains shown)
VH: B1 VH
VL: B1 VL with F70Y
B21: hHC4-b / hLC4-L2 (antibody, V domains shown)
VH: B1 VH with G33S, S35N, T58I
VL: B1 VL with L21M, V32L, L46W
B22: hHC4-b / hLC4-I (antibody, V domains shown)
VH: B1 VH with G33S, S35N, T58I
VL: B1 VL with L4M, S24R, V25A, V32L, H33S, L46W, E78Q
B23: hHC4-c / hLC4-J (antibody, V domains shown)
VH: B1 VH with K13Q, S49A, S50T, A61P
VL: B1 VL with L4M, L21M, S24R, V25A, V32L, L46W, E78Q
B24: hHC4-a / hLC4-c (antibody, V domains shown)
VH: B1 VH with S50T, A61P
VL: B1 VL with L4M, L13V, D69E, E78Q, P79S
B25: hHC4-c / hLC4-d (antibody, V domains shown)
VH: B1 VH with K13Q, S49A, S50T, A61P
VL: B1 VL with L4M, L13V, D69E, F70Y, E78Q, P79S
B26: hHC4-b / hLC4-K (antibody, V domains shown)
VH: B1 VH with G33S, S35N, T58I
VL: B1 VL with S24R, V25A, V32L, L46W
B27: hHC4-a / hLC4-a (antibody, V domains shown)
VH: B1 VH with S50T, A61P
VL: B1 VL
B28: hHC4-c / hLC4-K (antibody, V domains shown)
VH: B1 VH with K13Q, S49A, S50T, A61P
VL: B1 VL with S24R, V25A, V32L, L46W
B29: hHC4-b / hLC4-J (antibody, V domains shown)
VH: B1 VH with G33S, S35N, T58I
VL: B1 VL with L4M, L21M, S24R, V25A, V32L, L46W, E78Q
B30: hHC4-K / hLC4-c (antibody, V domains shown)
VH: B1 VH with T58I
VL: B1 VL with L4M, L13V, D69E, E78Q, P79S
B31: hHC4-d / hLC4-I (antibody, V domains shown)
VH: B1 VH with V5L, K13Q, S50T, A61P, A75S, S78T, R98K
VL: B1 VL with L4M, S24R, V25A, V32L, H33S, L46W, E78Q
B32: hHC4-c / hLC4-M (antibody, V domains shown)
VH: B1 VH with K13Q, S49A, S50T, A61P
VL: B1 VL with L21M, S24G, V25A, V32L, Q41L, L46W, A59D, S76R
B33: hHC4-c / hLC4-a (antibody, V domains shown)
VH: B1 VH with K13Q, S49A, S50T, A61P
VL: B1 VL
B34: hHC4-K / hLC4-M (antibody, V domains shown)
VH: B1 VH with T58I
VL: B1 VL with L21M, S24G, V25A, V32L, Q41L, L46W, A59D, S76R
B35: hHC4-c / hLC4-I (antibody, V domains shown)
VH: B1 VH with K13Q, S49A, S50T, A61P
VL: B1 VL with L4M, S24R, V25A, V32L, H33S, L46W, E78Q
B36: hHC4-a / hLC4-I (antibody, V domains shown)
VH: B1 VH with S50T, A61P
VL: B1 VL with L4M, S24R, V25A, V32L, H33S, L46W, E78Q

Molecular target: T1, Soluble CDCP1 extracellular domain (CDCP1-ECD) (SEQ ID NO:30) fused to Streptavidin Binding Protein (SBP) (human, UniProt Q9H5V8 30-663)
T1 construct: also called SBP-CDCP1-ECD
T1 sequence: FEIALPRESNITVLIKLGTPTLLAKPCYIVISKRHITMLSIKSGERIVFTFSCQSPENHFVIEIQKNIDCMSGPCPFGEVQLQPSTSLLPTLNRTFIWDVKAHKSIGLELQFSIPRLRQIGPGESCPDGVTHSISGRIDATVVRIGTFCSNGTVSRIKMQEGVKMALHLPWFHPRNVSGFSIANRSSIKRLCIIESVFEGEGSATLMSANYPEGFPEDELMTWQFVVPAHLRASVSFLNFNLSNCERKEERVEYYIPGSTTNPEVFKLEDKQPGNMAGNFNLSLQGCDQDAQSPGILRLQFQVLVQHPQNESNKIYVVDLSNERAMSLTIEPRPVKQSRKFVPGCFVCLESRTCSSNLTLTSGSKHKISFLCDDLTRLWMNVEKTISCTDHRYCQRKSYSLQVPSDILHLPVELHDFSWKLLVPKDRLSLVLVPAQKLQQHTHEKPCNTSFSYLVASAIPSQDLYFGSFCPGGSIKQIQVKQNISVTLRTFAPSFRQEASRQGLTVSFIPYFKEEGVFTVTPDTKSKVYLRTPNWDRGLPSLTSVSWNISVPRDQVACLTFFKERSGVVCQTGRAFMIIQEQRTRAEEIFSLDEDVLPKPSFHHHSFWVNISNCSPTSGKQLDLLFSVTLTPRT
Experiment: ELISA on captured SBP-CDCP1-ECD, ratio relative to chimeric CUB4 (chHC4)
Procedure: Soluble CDCP1 extracellular domain (CDCP1-ECD) (SEQ ID NO:30) fused to Streptavidin Binding Protein (SBP) was captured on a sreptavidine plate. To define optimal binding of the antibody to SBP-CDCP1-ECD, 384-well polystyrene plates (NUNC, streptavidin-coated) delivered by MicroCoat, Bernried, Germany (ID-No. 1734776-001) have been coated with pure and stepwise diluted HEK293 supernatant (in BSA/IMDM buffer: 100 mg/ml BSA Fraction V, Roche 10735078001, dissolved in Iscove's Modified Dulbeccos Medium). Using a calibration curve of mouse CUB4 antibodies the optimal dilution factor of the HEK293 supernatant in relation to the streptavidin binding capacity of the microtiter plate was identified. For the standard coating, SBP-CDCP1-ECD containing HEK293 supernatant was diluted (between 1:15 and 1:40) and incubated overnight at 2-8° C. (25 μl per well). Intensive washing of the microtiter plate is necessary to remove remaining unbound SBP-CDCP1-ECD.
Humanized CUB4 antibodies and/or reference antibody (chimeric (chHC4) CUB4 antibody comprising human constant region and mouse VH and VL of SEQ ID NO:1 and 2) were tested either undiluted or using a 12-step-dilution. 12.5 μl per well of each sample was incubated for 90 min at room temperature. After intensive washing using PBS-T (0.1% Tween 20 in PBS) 25 μl of either goat anti-human IgG antibodies coupled with HRP (Jackson ImmunoResearch, Code No: 109-036-098, dilution 1:10000) for human antibodies were added and incubated for 1 hour. After intensive washing the binding of the antibodies was detected with ABTS tablets (Roche Diagnostics GmbH, Cat. No.: 1112422). Absorbance at 405 nm/492 nm was measured using a standard photometer.

| Binder | relative binding ratio | binding result |
| --- | --- | --- |
| B1 | 0.1 |  |
| B2 |  | no binding |
| B3 | 0.8 |  |
| B4 | 0.58 |  |
| B5 | 0.36 |  |
| B6 | 0.28 |  |
| B7 | 0.45 |  |
| B8 |  | no binding |
| B9 |  | no binding |
| B10 | 0.53 |  |
| B11 | 0.02 |  |
| B12 |  | no binding |
| B13 |  | no binding |
| B14 |  | no binding |
| B15 |  | no binding |
| B16 | 0.01 |  |
| B17 | 0.28 |  |
| B18 | 0.29 |  |

| Binder | relative binding ratio | binding result |
| --- | --- | --- |
| B19 | 0.55 |  |
| B20 | 0.12 |  |
| B21 |  | no binding |
| B22 |  | no binding |
| B23 | 0.42 |  |
| B24 | 0.35 |  |
| B25 | 0.36 |  |
| B26 |  | no binding |
| B27 | 0.38 |  |
| B28 | 0.83 |  |
| B29 |  | no binding |
| B30 |  | no binding |
| B31 |  | no binding |
| B32 | 0.71 |  |
| B33 | 0.34 |  |
| B34 | 0.04 |  |
| B35 |  | no binding |
| B36 |  | no binding |
